Data on 1 molecule can be found in patent US6500431B1, “Inhibitors of angiogenesis and tumor growth” (University of Southern California, priority 1998, dated 2002).

Data set [1] relates to CD34+ cord blood derived cells. The data set is described as follows: Viability of CD34+ cord blood derived cells. It is filed as cell-based, human. From the text:
However in the presence of Saposin B, CD34^+/Flk-1^+ progenitor […] was inhibited.
Saposin B was found not to be toxic to most CD34^+ cord blood derived cells, since the difference in viability of Saposin B treated CD34^+ cells was only around 20% when compared to control cells. Thus Saposin B not only targets fully differentiated and activated endothelial cells, but also a circulating progenitor, previously shown to target angiogenic sites.

For data set [2], the system named is chicken allantoic membrane (CAM). The data set can be described thus: Chicken allantoic membrane (CAM) angiogenesis assay. It is filed as in vivo. The note with it: induced by VEGF or bFGF; 48 hours. Here is the method: In order to test anti-angiogenic activity, chicken allantoic membrane (CAM) assays were performed with recombinant Saposin B. Ten day old fertilized chicken eggs were prepared for assay by creating a window in the egg shell, and placing filter paper discs saturated with VEGF or bFGF as positive controls, test compounds, or carrier buffer (negative controls) on the allantoic membrane. The membranes were harvested after 48 hours and analyzed using an Olympus stereomicroscope. The number of branching blood vessels that infiltrated under the discs were counted and photographed. Eight CAMs were studied for test group, and the experiments were repeated at least twice.

In data set [3] the test system is endothelial cells (HUVEC). The data set can be described thus: Growth inhibition of endothelial cells. In kind it is cell-based. The protocol:
FIG. 1D: Activity of n-terminus decapeptide (DVCQDCIQMV; SEQ ID NO 21).
FIG. 1E: Activity of N-terminus pentapeptide (DVCQC; SEQ ID NO: 28).
(§1) By SDS-PAGE, the bacterial product was smaller than the eukaryotic protein. Because prokaryotically expressed proteins are not glycosylated, the difference in molecular weights probably represents the presence of carbohydrate in the eukaryotic protein. Recombinant proteins were then tested in KS, endothelial and control cell lines. Activity was found only in KS cell lines and endothelial cells.

A further data set concerns endothelial cells. The data set can be described thus: Endothelial cell migration assay, fibronectin-coated transwell. The note with it: chemotaxis induced by VEGF or bFGF. It is filed as cell-based. Here is the method:
The assays were done in double chamber wells separated by […] membrane. Chemotaxis was induced by bFGF (25 ng/mL) in the lower chamber. Endothelial cells or KS cells (5×10^4/mL) were placed in the upper chamber in the presence and absence of test polypeptides. Taxol at 10 ng/mL was used as a known inhibitor of migration. Cell migration across the membrane was quantitated after an overnight incubation.
Angiogenesis is mediated by complex biochemical processes including degradation of the basement membrane under existing blood vessel endothelial cells, followed by proliferation and migration of endothelial cells, followed by formation of capillary loops, and recruitment of vascular smooth muscle cells to encase the newly formed vessels and provide stability. […]
Briefly, wells were coated with fibronectin (25 μg/mL) overnight, and endothelial cells or KS cells were plated in the upper chamber with 100 μL of DMEM/0.4% FCS. […] The plates were incubated for 5 hr at 37° C. and the cells crossing the fibronectin-coated membrane were counted after wiping the cells off the membrane in the upper chamber with a cotton swab.
The cells that traversed the membrane were fixed with Diff-Quik stain according to the manufacturer's instruction (Dade Diagnostics Inc., Aguada, PR). The cells were counted under a microscope at 320× in four randomly selected fields. […]

Data set [4] relates to CD34+/Flk-1+ cells from cord blood. The data set can be described thus: Growth of CD34+/Flk-1+ progenitors on fibronectin coated dishes. It is filed as cell-based, human. Particulars: 50 ng/mL Saposin B. From the text: A bone marrow derived human CD34+/Flk-1+ progenitor cell can be mobilized into the blood stream in response to tumor induced signals such as VEGF and cytokine production. These cells can target to sites of angiogenesis where they mature into activated endothelial cells and thus contribute to the generation of new blood vessels at the tumor site. By blocking the production of these cells or by targeting these cells (i.e., the CD34+/Flk-1+ progenitors and the activated endothelial cell they can become), the angiogenesis/vasculogenesis required for tumor growth can be reduced or halted. […] The adherent cells take on a spindle-shaped morphology characteristic of the activated vascular endothelial cells typical of the angiogenic process. These cells express endothelial-specific markers including factor VIII, ulex europaeus agglutinin-1 (UEA-1), endothelial constitutive nitric oxide synthase (ecNOS), and E selectin. Further, when these cells (peripheral blood Flk+ progenitors) are infused into mice, they incorporate into newly formed blood vessels at site of injury. These observation identify CD34+/Flk-1+ bone marrow derived progenitors as a putative precursor to vascular endothelial cells. Preventing these cells from colonizing at distal sites of angiogenesis in tumors has enormous implication for the treatment of tumors. […]

The subject of data set [5] is Lewis lung carcinoma, melanoma (B16), T-cell lymphoma (EL-4), KS Y-1. The data set can be described thus: Syngeneic tumors in C57BL/6 mice, KS Y-1 in nude mice. It is filed as in vivo. Particulars: 2.5 mg/kg the day following implantation; two weeks. Here is the method:
FIG. 4: Inhibition of tumor growth in mice. C57BL/6 mice were implanted with Lewis lung carcinoma, melanoma (B16), and T-cell lymphoma (EL4). KS Y-1 was implanted in nude mice as a positive control. One day after implantation 2.5 mg/kg of Saposin B was injected into the mice subcutaneously.
To determine whether this anti-tumor effect was reproducible with different classes of syngeneic tumors, C57BL/6 mice were implanted with Lewis lung carcinoma, melanoma (B16), and T-cell lymphoma (EL-4) cell lines. KS Y-1 was implanted into nude mice for a positive control. The day following tumor implantation, 2.5 mg/kg of Saposin B was administered intraperitoneally. Tumor size was measured three times a week for two weeks at which time the mice were sacrificed for analysis. […] See, FIG. 4

Another data set relates to KS cell lines. The data set is described as follows: Activity of recombinant Prosaposin chains on growth of KS cell lines. It is filed as cell-based. The note with it: FIG. 1.
Text: In order to determine whether recombinant Saposin B has anti-angiogenic activity, the coding region of each of the Prosaposin chains was amplified from fibroblast cell lines and cloned into both bacterial (pGEX-KG) and eukaryotic (pcDNA 3.1His A) expression vectors.
The PCR products were digested with the respective restriction enzymes and the restriction products were inserted into the pGEX-KG vector for bacterial expression. pGEX-KG vector comprises a glutathione S transferase (GST)-tag at the […] of the insertion site so that a GST-fusion protein is expressed. The GST-tag is used to aid in purification of the recombinant protein. After elution from a glutathione-Sepharose 4B column, the GST-tagged proteins were incubated with thrombin (4 μg/ml) for 4 hr at room temperature (22-25° C.) in 50 mM Tris, pH 8.3, 3 mM CaCl2, 150 mM NaCl to cleave GST from the fusion protein. Free GST was removed from the preparation by passing the digested fusion protein through the glutathione-Sepharose 4B column.
as §1

Entries after “also recorded” stand apart in the source; their conditions may differ.

B1: Saposin B: polypeptide fragment of Prosaposin (positions 190 to 269), SEQ ID NO:2; recombinantly expressed (protein)
chain: GDVCQDCIQMVTDIQTAVRTNSTFVQALVEHVKEECDRLGPGMADICKNYISQYSEIAIQMMMHMQPKEICALVGFCDEVK
In the case of B1, the “difference in viability of treated CD34+ cells compared to control cells” value in data set [1] is recorded as “around 20%”. Further, the “angiogenesis (number of blood vessel branches) in CAMs” value in data set [2] is “effectively blocked angiogenesis; also recorded: inhibited by Saposin B in a dose-dependent fashion”. Moreover, the “growth inhibition of endothelial cells” value in data set [3] (FIG. 1, 1D, 1E) is given as “dose dependent growth inhibition”. In addition, in data set [3] (FIG. 1B), the “growth inhibition of proliferating versus quiescent endothelial cells (HUVEC)” value was “Only proliferating and not quiescent endothelial cells (HUVEC) show dose dependent growth inhibition”. The “inhibition of endothelial cell migration” value in the data set on endothelial cells is listed as “compete inhibition of cell migration; also recorded: inhibited endothelial cell migration”. Moreover, the “CD34+/Flk-1+ progenitor growth” value in data set [4] is listed as “inhibited”. Moreover, the tumor growth result in data set [5] is “profound inhibition of tumor growth”. Besides, the “growth inhibition of KS cells” value in the data set on KS cell lines is recorded as “dose dependent growth inhibition”.
